The results in this text go back to PMC9865707, “Structural Insights of the DciA Helicase Loader in Its Relationship with DNA”.

For data set [1], the target named is T1, VcDnaB (Vibrio cholerae, UniProt A0A085R2T8 1-468). Nature of the data set: BLI; 1 mM ATP?; 100 nM VcDnaB + 25-100 nM VcDciA; loading increased, maximal at 25 nM; BLI: 50 mM Hepes pH 7.0, 150 mM NaCl, 0.1% Tween, 1 mM ATP, temperature not stated; NMR: 20 mM phosphate pH 5.6, 50 mM NaCl, 303 K (also 293 K), 26 uM protein. The conditions noted are these: protein: recombinant; chain copies: 6; label: 5' biotin. In general terms: Biolayer interferometry detects binding as a change in optical thickness at a sensor tip.

The target of data set [2] is T1, VcDnaB. Nature of the data set: BLI; ATP; + VcDciA 25-100 nM; comparable to ssDNA; BLI: 50 mM Hepes pH 7.0, 150 mM NaCl, 0.1% Tween, 1 mM ATP, temperature not stated; NMR: 20 mM phosphate pH 5.6, 50 mM NaCl, 303 K (also 293 K), 26 uM protein. The conditions noted are these: protein: recombinant; chain copies: 6; label: 5' biotin on strand 1; fork, 38 nt hybridized zone; non-complementary tails (strand 1 3' side, strand 2 5' side); 5' overhang 2 nt (AA) of strand 1.

B1: ssDNA oso23 (ssDNA)
DNA: AAGCGTGGTGAAACCTACCTCTGATTCGAAACCTTCACTTTACGTGGTCTGGCGTGGTGAATGTTCGTCGGCGTGCTCGA
Regarding B1, the binding result with VcDnaB [1] is on record as “binds”.

B2: foDNA oso23/oso18 (dsDNA)
DNA 1: B1 DNA
DNA 2: CCAGGAATACGGCAAGTTGGAGGCCGGGCTGGATGGAGACTAAGCTTTGGAAGTGAAGGTTTCGAATCAGAGGTAGGTTTCACCACGC
For the molecule B2, the binding result with VcDnaB [2] was “binds”.
